Results: US20230272011A1 (AVACTA LIFE SCIENCES, published 2023)

Key:
[1] = target: T1, human serum albumin (human, UniProt P02768 25-609); assay: binding ELISA on coated albumin, pH 6.0, panel 'HSA Binding at pH 6.0'
T1 construct: mature; Bought protein; biotinylated in the Octet and HTRF assays; also called HSA; HuSA

[2] = target: T1, human serum albumin; assay: Octet biolayer interferometry, biotinylated albumin on SA sensors, pH 7.4
How it was run: (§1)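 Affinity is measured against albumin captured at 1 μg/ml on streptavidin tips, in PBS-T (0.01% Tween 20) plus 1% casein at the stated pH, at 25° C.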

[3] = target: T2, cynomolgus serum albumin (cynomolgus); assay: as above
T2 construct: also called CSA; cyno serum albumin
How it was run: as §1

[4] = target: T3, mouse serum albumin (mouse, UniProt P07724 25-608); assay: as above
T3 construct: also called MSA
How it was run: as §1

[5] = target: T3, mouse serum albumin; assay: binding ELISA on coated MSA, pH 6.0
Procedure: (§2) Human (Sigma-Aldrich); Cynomolgus and Mouse (Abcam); Equine (Abcam); Canine (Abcam); Mouse (Sigma-Aldrich); Rabbit (Sigma-Aldrich); Porcine (Sigma-Aldrich);, and Rat (Sigma-Aldrich) serum albumin were coated overnight on 96 well plates (Corning Costar) at 1 μg/ml in PBS at the appropriate pH (pH 6.0 or 7.4). Plates were saturated using 5% Casein (Sigma-Aldrich) buffer in PBS. […] Plates were then washed and AFFIMER® proteins were detected using a biotinylated polyclonal antibody anti-Cystatin (R&D System) for 90 minutes. After washing, streptavidin-HRP (Thermo Fisher Scientific) was added and incubated for 30 minutes.
Briefly, PD-1 was coated overnight on the plate at 1 μg/ml in carbonate buffer. Then plates were saturated using 5% Casein/PBS buffer. […] After saturation, the mix was added to the plates and incubated for 90 minutes. Plates were then washed and the detection polyclonal antibody, biotinylated anti-PD-L1, was added. After washing the plates, streptavidin-HRP was added for 30 minutes. After a final wash, development of the reaction was performed using TMB (Pierce) and the plates were read using a plate reader at 450 nm (FIG. 26C).

[6] = target: T3, mouse serum albumin; assay: binding ELISA on coated albumin, pH 6.0, panel 'MSA Binding at pH 6.0'
Procedure: (§3) Briefly, ELISA was performed as follow:
as §2

[7] = target: T1, human serum albumin; assay: Octet biolayer interferometry, pH 6.0
Procedure: (§4) Biotinylated antigen was captured onto SA sensors at 1 μg/ml for 600 seconds in a buffer comprising PBS-T (0.01% Tween 20)+1% casein at either pH 6.0 or 7.4. Association was carried out for 300 seconds and dissociation for 600 seconds, and regeneration was performed using 10 mM glycine pH 1.5 (GE Healthcare) for 3×5 seconds. All steps were carried out at 1000 rpm and 25° C. Purified AFFIMER® polypeptide in two-fold serial dilutions was analyzed at a starting concentration of approximately 10× K_{D value}. Kinetics analyses were carried out using the Octet data analysis software, subtracting the reference sensor (loaded with antigen), aligning the Y-axis to baseline, and using inter-step correction to align association to dissociation. Savitzky-Golay filtering was applied and the data processed. Analysis of the data was carried out with a 1:1 model, global fit, Rₘₐₓ unlinked by sensor.
(§5) AFFIMER® polypeptides were incubated with AcTEV for 1 hour at 30° C. as recommend by the manufacturer (Invitrogen) and removal of cleaved His tag by binding NiNTA resin (Generon) and collecting the cleaved protein flow through. […] Pharmacokinetic profile of IV-injected His tag cleaved AFFIMER® protein compared to C-terminally His-tagged AFFIMER® protein was evaluated.

[8] = target: T2, cynomolgus serum albumin; assay: Octet biolayer interferometry, pH 6.0
Procedure: as §4, §5

[9] = target: T3, mouse serum albumin; assay: Octet biolayer interferometry, pH 6.0
Procedure: as §4, §5

[10] = target: T2, cynomolgus serum albumin; assay: binding ELISA on coated albumin, pH 6.0, panel 'CSA Binding at pH 6.0'
Procedure: as §3, §2

[11] = target: T1, human serum albumin; assay: SPR (Biacore T200), albumin amine-coupled to CM5, Affimer analyte, pH 7.4
Procedure: (§6) Affinities for mouse, human, and cynomolgus serum were also measured at pH 7.4 for four (4) AFFIMER® binders using surface plasmon resonance (SPR) (FIG. 5, Table 5). […] A concentration titration of AFFIMER® monomers was run as analyte at a flow rate of 30 μl/min or 60 μl/min. Fc2-1, Fc3-1 and Fc4-1 kinetic data was blank subtracted and fit to a 1:1 Langmuir binding model (BIAcore Evalution software; GE) to calculate KD values.

[12] = target: T2, cynomolgus serum albumin; assay: as above
Procedure: as §6

[13] = target: T3, mouse serum albumin; assay: as above
Procedure: as §6

[14] = target: T2, cynomolgus serum albumin; assay: Octet biolayer interferometry, biotinylated albumin on SA sensors, pH 6.0
How it was run: as §1

[15] = target: T3, mouse serum albumin; assay: as above
How it was run: as §1

[16] = target: T1, human serum albumin; assay: BLI (Octet), biotinylated albumin on SA sensor, pH 6.0
How it was run: as §1

[17] = target: T2, cynomolgus serum albumin; assay: as above
How it was run: as §1

[18] = target: T3, mouse serum albumin; assay: as above
How it was run: as §1

T3 sequence (P07724 25-608 limits assumed): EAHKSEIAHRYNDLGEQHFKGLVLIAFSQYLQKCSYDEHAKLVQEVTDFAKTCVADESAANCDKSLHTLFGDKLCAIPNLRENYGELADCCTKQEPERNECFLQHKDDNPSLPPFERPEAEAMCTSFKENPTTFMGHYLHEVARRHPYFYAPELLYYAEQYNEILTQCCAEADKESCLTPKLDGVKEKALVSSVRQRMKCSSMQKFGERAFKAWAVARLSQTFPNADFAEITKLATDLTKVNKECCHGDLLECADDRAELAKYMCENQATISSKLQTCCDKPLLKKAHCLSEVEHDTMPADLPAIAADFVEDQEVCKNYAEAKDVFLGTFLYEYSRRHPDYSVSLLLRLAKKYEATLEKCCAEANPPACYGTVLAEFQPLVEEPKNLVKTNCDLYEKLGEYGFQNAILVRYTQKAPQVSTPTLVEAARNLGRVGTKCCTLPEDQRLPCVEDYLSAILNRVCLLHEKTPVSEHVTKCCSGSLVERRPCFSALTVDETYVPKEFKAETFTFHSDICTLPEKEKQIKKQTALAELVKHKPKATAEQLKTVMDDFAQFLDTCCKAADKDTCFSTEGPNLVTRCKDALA
T2 sequence (A2V9Z4 25-608): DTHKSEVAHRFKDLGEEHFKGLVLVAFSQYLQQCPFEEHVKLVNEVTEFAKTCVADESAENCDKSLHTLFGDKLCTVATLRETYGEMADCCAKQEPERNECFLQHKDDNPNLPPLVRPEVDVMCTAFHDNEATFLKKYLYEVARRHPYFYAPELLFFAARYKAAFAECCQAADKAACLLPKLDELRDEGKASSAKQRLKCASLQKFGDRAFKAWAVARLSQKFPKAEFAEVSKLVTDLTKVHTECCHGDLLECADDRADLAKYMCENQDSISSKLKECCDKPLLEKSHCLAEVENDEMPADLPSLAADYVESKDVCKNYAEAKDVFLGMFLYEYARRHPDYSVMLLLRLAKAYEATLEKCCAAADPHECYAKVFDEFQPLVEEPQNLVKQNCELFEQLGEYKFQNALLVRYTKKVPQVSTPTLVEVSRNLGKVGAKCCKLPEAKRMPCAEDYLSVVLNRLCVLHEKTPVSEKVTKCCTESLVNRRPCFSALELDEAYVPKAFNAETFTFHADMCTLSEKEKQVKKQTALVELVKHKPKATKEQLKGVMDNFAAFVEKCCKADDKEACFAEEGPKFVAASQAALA

B1: HSA-41 (designed binder)
chain: MIPRGLSEAKPATPEIQEIVDKVKPQLEEKTNETYGKLEAVQYKTQVLANFFQRRWPGSTNYYIKVRAGDNKYMHLKVFNGPWKFRNTDRGADRVLTGYQVDKNKDDELTGFHHHHHH
notes: also called HSA-41 parent; HSA-41 AH parent
**Q.** How did the “EC50 (read off the curve)” value [1] turn out when B1 was run?
**A.** The value was about 0.04 nM.

**Q.** And the koff [2]?
**A.** The koff was 0.00198 s⁻¹.

**Q.** What about the kon [2] of the same binder?
**A.** The kon was 379000 M⁻¹ s⁻¹.

**Q.** And the koff [3]?
**A.** The koff was 0.0177 s⁻¹.

**Q.** What about the kon [3] of the same binder?
**A.** The kon was 248000 M⁻¹ s⁻¹.

**Q.** What about the koff [4] of the same binder?
**A.** The koff was 0.0318 s⁻¹.

**Q.** What about the kon [4] of the same binder?
**A.** The kon was 663000 M⁻¹ s⁻¹.

**Q.** What about the “EC50 (read off the curve)” value [5] of the same binder?
**A.** The value was about 0.7 nM.

**Q.** And the “EC50 (read off the curve)” value [6]?
**A.** The value was about 0.7 nM.

**Q.** What about the Kd [7] of the same binder?
**A.** The Kd was 11.9 nM.

**Q.** What about the Kd [8] of the same binder?
**A.** Its Kd is 220 nM.

**Q.** What about the Kd [9] of the same binder?
**A.** Its Kd is 50.5 nM.

**Q.** And the “EC50 (read off the curve)” value [10]?
**A.** Its value is about 3 nM.

**Q.** And the Kd [11]?
**A.** Its Kd is 2.59 nM.

**Q.** What about the koff [11] of the same binder?
**A.** Its koff is 0.0037 s⁻¹.

**Q.** And the kon [11]?
**A.** The kon was 1.43e+06 M⁻¹ s⁻¹.

**Q.** And the Kd [12]?
**A.** Its Kd is 112 nM.

**Q.** And the koff [12]?
**A.** The koff was 0.0546 s⁻¹.

**Q.** What about the kon [12] of the same binder?
**A.** Its kon is 488000 M⁻¹ s⁻¹.

**Q.** And the Kd [13]?
**A.** Its Kd is 67.8 nM.

**Q.** What about the koff [13] of the same binder?
**A.** The koff was 0.139 s⁻¹.

**Q.** And the kon [13]?
**A.** The kon was 2.04e+06 M⁻¹ s⁻¹.

**Q.** What about the koff [14] of the same binder?
**A.** Its koff is 0.00717 s⁻¹.

**Q.** And the kon [14]?
**A.** The kon was 68100 M⁻¹ s⁻¹.

**Q.** What about the koff [15] of the same binder?
**A.** Its koff is 0.0447 s⁻¹.

**Q.** What about the kon [15] of the same binder?
**A.** The kon was 470000 M⁻¹ s⁻¹.

**Q.** And the Kd [16]?
**A.** The Kd was 7.1 nM.

**Q.** And the Kd [17]?
**A.** The Kd was 105 nM.

**Q.** What about the Kd [18] of the same binder?
**A.** Its Kd is 95.2 nM.
